Measurements published in PMC3302219.

Key:
Assay in all cases: FRET or BRET
Conditions in all cases: remark: other sources report otherwise
[1] = biological target: T1, CXCR4 fused to CFP (CXCR4-C) or to YFP (CXCR4-Y) (human), P61073
T1 chain: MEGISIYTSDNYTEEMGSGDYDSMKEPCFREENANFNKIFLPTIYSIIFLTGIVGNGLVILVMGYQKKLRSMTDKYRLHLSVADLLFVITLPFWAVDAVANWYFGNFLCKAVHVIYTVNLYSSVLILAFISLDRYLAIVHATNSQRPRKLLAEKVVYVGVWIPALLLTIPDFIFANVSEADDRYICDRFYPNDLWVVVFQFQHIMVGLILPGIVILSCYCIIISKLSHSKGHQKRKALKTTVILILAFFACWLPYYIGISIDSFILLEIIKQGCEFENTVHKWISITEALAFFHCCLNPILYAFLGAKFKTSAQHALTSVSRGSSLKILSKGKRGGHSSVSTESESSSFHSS

[2] = biological target: T1, CXCR4 fused to CFP (CXCR4-C) or to YFP …
[3] = biological target: T1, CXCR4 fused to CFP (CXCR4-C) or to YFP …

B1: CXCR4 fused to CFP (CXCR4-C) or to YFP (CXCR4-Y), P61073 1-352 (receptor)
chain: T1 chain
FRET50 [1]: 1.55
FRET50 [2]: 1.61
FRET50 [3]: 1.27
